In article PMC5095173, “Disulfide-activated protein kinase G Iα regulates cardiac diastolic relaxation and fine-tunes the Frank–Starling response” (Nature Communications, 2016):

Molecular target: T1, phospholamban (mouse myocardium) (mouse (endogenous in mouse heart)), P61014
T1 chain: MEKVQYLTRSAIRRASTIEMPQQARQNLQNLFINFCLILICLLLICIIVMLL
Assay: SDS-PAGE of samples not boiled, with immunoblot; mouse heart homogenate, samples not boiled before western blotting for total PLN; WT and C42S PKGIα KI hearts
Settings: remark: other sources report otherwise

stoichiometry N: 5
B1: phospholamban (mouse myocardium), P61014 1-52 (natural protein)
chain: T1 chain
